For one molecule, Kd results are on record in PMC12561408, “AI‐Driven De Novo Design of Ultra Long‐Acting GLP‐1 Receptor Agonists” (Advanced Science, 2025).

Assay in all cases: SPR
What all share (conditions): both partners purified

Assay [1] deals with T1, GST-peptide fusion protein D13.
T1 construct: source: E. coli BL21 (DE3), GST-peptide fusion; not shown: GST, N-terminal, kept

For assay [2], the target named is T2, GST-peptide fusion protein D41.
T2 construct: source: E. coli BL21 (DE3), GST-peptide fusion; not shown: GST, N-terminal, kept

The target of assay [3] is T3, GST-peptide fusion protein D44.
T3 construct: source: E. coli BL21 (DE3), GST-peptide fusion; not shown: GST, N-terminal, kept

B1: Human GLP-1R protein (receptor)
chain: RPQGATVSLWETVQKWREYRRQCQRSLTEDPPPATDLFCNRTFDEYACWPDGEPGSFVNVSCPWYLPWASSVPQGHVYRFCTAEGLWLQKDNSSLPWRDLSECEESKRGERSSPEE
Broadly, the Kd is the equilibrium constant for the complex coming apart. In the case of B1, the results for the Kd in assay [1], in assay [2] and in assay [3] were 8.58 µM, 5.19 µM and 6.78 µM, respectively.
